Among the data in article PMC5686127 (2017) are Kd values, retold here.

In test [1] the target is T1, CHD4 PHD1-linker (aa 361–443) (human, UniProt Q14839 361-443). In words: 75 mM NaCl.
In the next test the target is CHD4 PHD2 (443–498) (human, UniProt Q14839 443-498). Nature of the test: 150 mM NaCl.
Another test addresses CHD4 PHD1 (aa 362–417) (human, UniProt Q14839 362-417). In words: 150 mM NaCl.
The next test addresses CHD4 PHD1/2 (aa 361–503) (human, UniProt Q14839 361-503). In words: 150 mM NaCl.
The target in test [2] is CHD4 linker-PHD2 (aa 414–503) (human, UniProt Q14839 414-503). In words: 150 mM NaCl.
Test [3] concerns the target T1, CHD4 PHD1-linker (aa 361–443). Nature of the test: 150 mM NaCl.

T1 sequence (Q14839 361-443): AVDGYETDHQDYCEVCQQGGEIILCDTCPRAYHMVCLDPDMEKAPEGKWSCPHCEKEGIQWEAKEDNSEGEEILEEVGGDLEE
Sequence of CHD4 PHD2 (443–498) (Q14839 443-498): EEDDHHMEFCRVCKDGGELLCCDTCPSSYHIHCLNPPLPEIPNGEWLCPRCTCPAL
Sequence of CHD4 PHD1 (aa 362–417) (Q14839 362-417): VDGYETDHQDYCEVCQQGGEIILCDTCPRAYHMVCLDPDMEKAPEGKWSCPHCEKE
Sequence of CHD4 linker-PHD2 (aa 414–503) (Q14839 414-503): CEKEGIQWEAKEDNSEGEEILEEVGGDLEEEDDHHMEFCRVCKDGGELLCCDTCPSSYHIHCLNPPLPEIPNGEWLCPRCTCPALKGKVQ
Sequence of CHD4 PHD1/2 (aa 361–503) (Q14839 361-503): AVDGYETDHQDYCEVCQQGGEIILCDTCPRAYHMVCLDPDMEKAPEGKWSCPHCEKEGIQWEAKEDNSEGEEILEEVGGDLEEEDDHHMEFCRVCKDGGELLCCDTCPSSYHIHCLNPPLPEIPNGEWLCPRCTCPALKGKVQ

B1: histone H3 peptide (aa 1–12) (peptide)
peptide: ARTKQTARKSTG
By Kd is commonly meant the concentration at which binding is half-saturated. Low values mean a tighter complex, high ones a looser complex. B1: the Kd amounted to 300 nM in test [1]; 3000 nM in the test with CHD4 PHD2 (443–498); 18000 nM with CHD4 PHD1 (aa 362–417); 220 nM with CHD4 PHD1/2 (aa 361–503); 270 nM in test [2]; 500 nM in test [3].
